The values that follow come from PMC8710476 (Frontiers in Immunology, 2021).

The experiment concerns the target T1, SARS-CoV-2 full-length spike, WT D614G, expressed on the cell surface (SARS-CoV-2, wild type with D614G, UniProt A0A6H1PJZ3, D614G).
T1 construct: also called wild-type spike
The experiment in a line: flow cytometry on cells. The note with it: one partner purified. (In general: In flow cytometry, cells or beads pass a laser one at a time.)

B1: REGN10987 (class III) (antibody, V domains shown)
VH: QVQLVESGGGVVQPGRSLRLSCAASGFTFSNYAMYWVRQAPGKGLEWVAVISYDGSNKYYADSVKGRFTISRDNSKNTLYLQMNSLRTEDTAVYYCASGSDYGDYLLVYWGQGTLVTVSS
VL: QSALTQPASVSGSPGQSITISCTGTSSDVGGYNYVSWYQQHPGKAPKLMIYDVSKRPSGVSNRFSGSKSGNTASLTISGLQSEDEADYYCNSLTSISTWVFGGGTKLTVL
Regarding B1, the binding result is reported as “binds”.
